This assay has as its target T1, human full length recombinant 17β-hydroxysteroid dehydrogenase type 10 protein (His tag) (human, UniProt Q99714 1-261).
T1 construct: 17β-hydroxysteroid dehydrogenase type 10, human, full length recombinant protein; The tetramer was not measured here; The His tag and 'full length' are stated only in the co-immunoprecipitation methods; The SPR reagent is described as human recombinant protein from the same supplier, with no catalogue number; also called 17β-HSD10; ERAB; source: bought: Fitzgerald (Fitzgerald Industries …)
T1 sequence (looked up): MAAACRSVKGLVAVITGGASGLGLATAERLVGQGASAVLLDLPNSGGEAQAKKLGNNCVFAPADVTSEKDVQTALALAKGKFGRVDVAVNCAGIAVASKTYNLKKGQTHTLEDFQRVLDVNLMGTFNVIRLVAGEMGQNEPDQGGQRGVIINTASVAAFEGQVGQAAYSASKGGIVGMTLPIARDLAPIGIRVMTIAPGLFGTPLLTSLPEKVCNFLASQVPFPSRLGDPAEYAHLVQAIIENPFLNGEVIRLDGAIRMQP
The assay can be described thus: SPR; cypD captured (response 1.5 nm) on amine-coupled anti-cypD antibody; 17β-HSD10 at 6, 10, 30, 60 and 100 nM injected 10 min, dissociation 15 min; HEPES 10 mM pH 7.4 with 250 µg/ml BSA, 15 mM KCl, 0.1 mM MgCl2; 25 °C, 20 µl/min; reference channel without cypD subtracted; global fit, 1:1 Langmuir model with mass transport. The note with it: both partners purified. A general note: In SPR one partner is held on a chip, and binding of the other changes the refractive index at the surface.

B1: human full length cyclophilin D protein (His tag) (enzyme)
chain: not shown
notes: cyclophilin D (mitochondrial peptidyl-prolyl cis-trans isomerase F), human, full length recombinant protein; The His tag and 'full length' are stated only in the co-immunoprecipitation methods; also called cypD; PPIF; source: bought: Fitzgerald (Fitzgerald Industries International), recombinant
For the molecule B1, the Kd (commonly the concentration at which binding is half-saturated) is 0.35 nM and the koff (in general, a measure of how fast the partners let go of each other) worked out at 5.8e-05 s⁻¹.
